Test results taken from US20140018290A1 (Novo Nordisk, published 2014).

T1: human Leptin receptor (human, UniProt P48357 22-1165)
T1 construct: whole, on cells; also called hLeptin receptor
T1 sequence (looked up): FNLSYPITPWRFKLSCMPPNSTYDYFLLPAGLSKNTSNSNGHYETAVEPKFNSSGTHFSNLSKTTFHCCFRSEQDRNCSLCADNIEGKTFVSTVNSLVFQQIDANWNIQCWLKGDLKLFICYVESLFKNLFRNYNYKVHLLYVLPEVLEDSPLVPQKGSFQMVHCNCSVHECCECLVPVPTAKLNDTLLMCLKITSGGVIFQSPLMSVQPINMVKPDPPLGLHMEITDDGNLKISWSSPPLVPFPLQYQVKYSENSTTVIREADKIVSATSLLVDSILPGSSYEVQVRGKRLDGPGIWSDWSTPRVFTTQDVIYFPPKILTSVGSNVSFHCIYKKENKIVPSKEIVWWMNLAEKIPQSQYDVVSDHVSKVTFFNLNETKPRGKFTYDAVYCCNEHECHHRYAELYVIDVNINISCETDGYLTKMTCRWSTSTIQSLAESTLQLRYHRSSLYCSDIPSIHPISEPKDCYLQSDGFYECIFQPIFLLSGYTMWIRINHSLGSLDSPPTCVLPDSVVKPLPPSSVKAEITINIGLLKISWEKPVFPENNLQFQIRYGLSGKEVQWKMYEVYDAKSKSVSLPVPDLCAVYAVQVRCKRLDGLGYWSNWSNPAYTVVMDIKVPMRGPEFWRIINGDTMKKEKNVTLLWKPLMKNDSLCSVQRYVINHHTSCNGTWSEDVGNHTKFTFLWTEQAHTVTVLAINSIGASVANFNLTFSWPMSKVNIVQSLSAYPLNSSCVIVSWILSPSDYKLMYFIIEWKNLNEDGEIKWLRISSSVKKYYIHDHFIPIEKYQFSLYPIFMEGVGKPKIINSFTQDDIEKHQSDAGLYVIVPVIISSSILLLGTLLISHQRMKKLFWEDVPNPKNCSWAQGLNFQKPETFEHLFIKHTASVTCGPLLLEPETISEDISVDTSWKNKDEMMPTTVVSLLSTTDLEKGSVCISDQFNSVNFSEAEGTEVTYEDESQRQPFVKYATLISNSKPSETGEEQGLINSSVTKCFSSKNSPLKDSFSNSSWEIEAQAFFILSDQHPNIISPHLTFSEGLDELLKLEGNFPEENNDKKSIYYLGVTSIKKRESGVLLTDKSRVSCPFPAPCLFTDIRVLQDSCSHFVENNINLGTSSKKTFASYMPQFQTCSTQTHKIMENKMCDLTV

B1: Compound C (protracted rat Leptin: rat Leptin alkylated with compound 2 at the N-terminal amino group) (ligand)
chain: VPIHKVQDDTKTLIKTIVTRINDISHTQSVSARQRVTGLDFIPGLHPILSLSKMDQTLAVYQQILTSLPSQNVLQIAHDLENLRDLLHLLAFSKSCSLPQTRGLQKPESLDGVLEASLYSTEVVALSRLQGSLQDILQQLDLSPEC
modifications: N-terminal amino group alkylated with compound 2 (protractor group: C18 diacid (17-carboxyheptadecanoyl)-gamma-Glu-OEG-OEG-4-formylbenzylamide, attached by reductive alkylation)
notes: also called protracted rLeptin
B2: Compound A (protracted rat Leptin: rat Leptin alkylated with compound 1 at the N-terminal amino group) (ligand)
chain: B1 chain
modifications: N-terminal amino group alkylated with compound 1 (protractor group with 16-(tetrazol-5-yl)hexadecanoylsulfamoyl-butyryl, two Glu, OEG, Gly and an aldehyde-derived anchor)
notes: Mw 17190 g/mol
B3: Rat Leptin (ligand)
chain: B1 chain
notes: also called rLeptin; wt rat Leptin

Columns and labels:
human Leptin receptor [1] = target: T1, human Leptin receptor; experiment: SPA, displacement of human [125I]-Leptin from human Leptin receptor membranes, 2% HSA added; mean, n=3
Description: (§1) Human Leptin receptor SPA binding assay were performed in white 96-well plates in a total volume of 200 μl per well. Wheat germ agglutinin coated beads containing scintillation liquid were reconstituted in binding buffer (50 mM Hepes, 1 mM CaCl₂, 5 mM MgCl₂, 0.02% Tween 20, 0.25% Ovalbumin pH 7.4) and mixed with membrane preparation to give final concentration of 1 mg beads and 10 μg total protein per well. 50.000 cpm per well of radio ligand human [¹²⁵I]-Leptin was added corresponding to a concentration of approximately […]. Human serum albumin was added to a final concentration of 2% when binding in presence of albumin was investigated. Freeze dried Leptin analogues were dissolved in PBS to 100 μM and serial diluted in binding buffer to give a final assay concentration ranging from 100 nM to […]. The plate was sealed and incubated at +25° C. for 2 hours in a plate shaker set at 400 rpm and thereafter centrifuged at 1500 rpm for 10 minutes prior to reading of luminescence on a microplate scintillation and luminescence counter. Displacement of radioligand was measured as reduction in luminescence and IC₅₀ values were calculated by nonlinear regression analysis of sigmoidal dose-response curves.

human Leptin receptor [2] = target: T1, human Leptin receptor; experiment: cell-based or functional assay
human Leptin receptor [3] = target: T1, human Leptin receptor; experiment: SPA, displacement of human [125I]-Leptin from human Leptin receptor membranes, 0% HSA added; mean, n=3
Description: as §1

human Leptin receptor [4] = target: T1, human Leptin receptor; experiment: whole cell binding, displacement of [125I]-hLeptin on HEK293 cells expressing human Leptin receptor; mean, n=4
Description: HEK293 cells stably expressing the human Leptin receptor were seeded in poly-D-lysine coated 24 well plates at 200.000 cells per well and cultured for two days in alpha-minimum essential medium (MEM), cell culture media containing 10% heat inactivated fetal calf serum (FCS), 1% penicillin-streptomycin (P/S), 1 mg/ml Zeocin and 1 mg/ml G418 antibiotic at +37° C. in a humidified atmosphere with 5% CO₂. Prior to the experiment, cells were rinsed in pure MEM medium, followed by incubation in Leptin analogues at 10,3,1,0.3,0.1,0.03 and 0.01 nM concentrations for 45 minutes in MEM containing 0.005% polysorbate 20 and 0.1% ovalbumin and [¹²⁵I]-hLeptin 100000 cpm. The cells were washed three times in ice cold MEM and were lysed in lysis buffer containing 1.0% nonidet P-40, 0.5% triton X-100 (C₁₄H₂₂O(C₂H₄O)ₙ) and 1M sodium hydroxide. Samples are transferred to plastic

Binder | IC50 (human Leptin receptor [1]) | Luciferase assay, Mean EC50 nM, 0% HSA added (human Leptin receptor [2]) | Luciferase assay, Mean IC50 nM, 0.7% HSA added (human Leptin receptor [2]) | IC50 (human Leptin receptor [3]) | IC50 (human Leptin receptor [4])
B1 | 5.93 nM | 0.24 nM | 0.42 nM | 0.38 nM | 
B2 | 37.1 nM | 1.57 nM | 1.92 nM | 1.9 nM | 1.76 nM
B3 | 0.88 nM | 0.41 nM | 0.52 nM | 0.49 nM | 1.01 nM
